For one molecule, Kd results are on record in paper PMC6003225 (Molecular Biology of the Cell, 2018).

One may read the Kd as the equilibrium constant for the complex coming apart. Low values mean a tighter complex, high ones a looser complex.

This test deals with T1, Danio rerio CPAP G-box domain (DrCPAP_(G-box), amino acids 943–1121) (Danio rerio, UniProt E7FCY1 943-1121).
T1 sequence (looked up): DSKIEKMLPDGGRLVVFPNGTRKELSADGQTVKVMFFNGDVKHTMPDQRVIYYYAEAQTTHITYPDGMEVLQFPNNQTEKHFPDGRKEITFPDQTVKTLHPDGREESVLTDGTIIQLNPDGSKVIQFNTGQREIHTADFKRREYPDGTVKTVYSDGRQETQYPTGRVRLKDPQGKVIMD
Put plainly: ITC. A general note: Isothermal titration calorimetry measures the heat released or taken up as one component is titrated into another.

B1: C. elegans SAS-5 fragment corresponding to amino acids 2–122 (SAS-5N) (domain or fragment, UniProt Q20010 2-122, looked up)
chain: NNYDDLPCSIYFKKPTVQEFVDQPRVFEDSEVPAFQEVLQLPQERTKPPVPSTQPIVAAVEVAKKKSCLSAPKPRKEPPSHPALRQKTVAFGKTVNVSQTVEGTSRNSKKVLASTMSAQNT
The molecule B1 had a Kd of 34 ± 4 µM.
